In IntAct's records for PubMed 25730778:

B1: Protein argonaute (Schizosaccharomyces pombe (strain ATCC 38366 / 972)), O74957 (parent)
chain: MSYKPSSEIALRPGYGGLGKQITLKANFFQIISLPNETINQYHVIVGDGSRVPRKQSQLIWNSKEVKQYFGSSWMNSVYDGRSMCWSKGDIADGTIKVNIGSESHPREIEFSIQKSSKINLHTLSQFVNSKYSSDPQVLSSIMFLDLLLKKKPSETLFGFMHSFFTGENGVSLGGGVEAWKGFYQSIRPNQGFMSVNVDISSSAFWRNDSLLQILMEYTDCSNVRDLTRFDLKRLSRKFRFLKVTCQHRNNVGTDLANRVYSIEGFSSKSASDSFFVRRLNGEEQKISVAEYFLENHNVRLQYPNLPCILVKNGAMLPIEFCFVVKGQRYTAKLNSDQTANMIRFAVQRPFERVQQIDDFVHQMDWDTDPYLTQYGMKIQKKMLEVPARVLETPSIRYGGDCIERPVSGRWNLRGKRFLDPPRAPIRSWAVMCFTSTRRLPMRGIENFLQTYVQTLTSLGINFVMKKPPVLYADIRGSVEELCITLYKKAEQVGNAPPDYLFFILDKNSPEPYGSIKRVCNTMLGVPSQCAISKHILQSKPQYCANLGMKINVKVGGINCSLIPKSNPLGNVPTLILGGDVYHPGVGATGVSIASIVASVDLNGCKYTAVSRSQPRHQEVIEGMKDIVVYLLQGFRAMTKQQPQRIIYFRDGTSEGQFLSVINDELSQIKEACHSLSPKYNPKILVCTTQKRHHARFFIKNKSDGDRNGNPLPGTIIEKHVTHPYQYDFYLISHPSLQGVSVPVHYTVLHDEIQMPPDQFQTLCYNLCYVYARATSAVSLVPPVYYAHLVSNLARYQDVTADDTFVETSEASMDQEVKPLLALSSKLKTKMWYM
partner: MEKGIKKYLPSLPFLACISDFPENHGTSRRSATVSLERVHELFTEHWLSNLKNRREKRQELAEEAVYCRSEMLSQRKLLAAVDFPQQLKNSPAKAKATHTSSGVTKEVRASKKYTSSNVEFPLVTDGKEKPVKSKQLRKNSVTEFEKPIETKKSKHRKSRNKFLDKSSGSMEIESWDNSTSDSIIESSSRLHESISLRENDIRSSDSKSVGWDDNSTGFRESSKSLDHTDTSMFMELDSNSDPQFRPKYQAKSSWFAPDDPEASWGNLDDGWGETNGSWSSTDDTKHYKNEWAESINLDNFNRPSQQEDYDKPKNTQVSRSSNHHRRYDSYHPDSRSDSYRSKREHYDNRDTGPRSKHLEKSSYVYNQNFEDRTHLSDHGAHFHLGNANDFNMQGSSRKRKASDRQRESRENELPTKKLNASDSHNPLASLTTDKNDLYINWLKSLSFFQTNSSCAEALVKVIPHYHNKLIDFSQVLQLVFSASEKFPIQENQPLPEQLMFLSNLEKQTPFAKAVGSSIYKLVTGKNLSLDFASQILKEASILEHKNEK

Variants of: B1
Conditions: with tas3_schpo tas3, O94687

Variant	effect of a mutation on the interaction
F276A;R773E	disrupting interaction strength
R773E	disrupting interaction strength
